± gives the uncertainty stated by the source.
Assay: amyloid nucleation score (Sup35N fusion, yeast selection) (log enrichment); library NNK3; higher = more nucleation; inactive = no reads after selection
How it was run: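 The nucleation score equals the log enrichment of output over input reads from DiMSum, centred on the mode score of non-aggregating sequences. It was computed only for sequences with 100 or more input reads. The reads came from Illumina sequencing of plasmid inserts from psi-negative yeast expressing Sup35N fused to peptides of 20 random codons, induced with 100 μM copper sulfate for 24 hours and grown 7 days at 30°C without adenine and uracil.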

Substance	amyloid nucleation score
NDSLTLIWNGGSGYDVIKFE	inactive
SVNCHHLPNLHCWKYTKVEY	inactive
CLILSWYKYCSRGEMMHMKH	inactive
HFQCLMSVRSGSNQTRDILL	1.28 ± 0.15
HCRDEYYIYNRI	inactive
YHLDFMMGINSFRRVKAEPG	inactive
VYTRLVYIYQGVFCRIFSAC	1.86 ± 0.094
SIQYIYFDASQMRIENSRSL	2.37 ± 0.059
MVYGVSAVEVKSSLVGWVVA	inactive
EAARTDLSILFISWMLLGKR	inactive
SRIKD	inactive
GVGNKGSTKNLEQVTASVVV	inactive
GLKNRVSGPPFASTYFWSAL	inactive
ICEPADQV	inactive
EHVKRVRIWNSVNLVIEYMA	0.635 ± 0.19
PLTFT	inactive
DLLPLVTKYFSIGLH	inactive
AFFVVTIFVVNTSCDNVLVS	1.03 ± 0.11
WCGQWWLLASGVQSFQCCVY	1.39 ± 0.13
GECTWTDVPMANSPRFVSEY	inactive
PLSLGFVIGHHVSIPGSSTD	inactive
NSNGCVQGQRFSWPWVGRLA	inactive

Substance	amyloid nucleation score
FLMNHVLQNW	inactive
SIFRKINMYL	inactive
CFYSNQASQVLLLYHP	0.771 ± 0.2
LWLSDRNSLDSIAVCA	1.24 ± 0.093
FTMALMLALTTGISSMSVGG	0.345 ± 0.37
IVSMDQESTLQWNVPGYVLL	inactive
CEKDRMNLWLTRDG	inactive
SVPMVLFRASLVMYGLMLSQ	0.835 ± 0.12
TWLFFRNHTQAFCSYLAHWG	inactive
KRSSSAAIKKRIIVQIDGNR	inactive
NYGTLMYTVL	inactive
FDRYYVSPLRVLHQVGCEIL	inactive
SVYRSRSHRVFWEFLSGAT	inactive
FNWFCLFLWMRNRSKPFWTM	inactive
SFLHTQSAKDTFVHNAVTYT	inactive
RNVVAESRKSWGHCVRVTYT	inactive
VNTFGLDHEITSFMMCGETG	inactive
CPVKHGGLHYSNQSYHSSGG	inactive
LCPLMAY	inactive
LERHL	inactive
FWWKSYFFNLKV	inactive
IGYLDFVHSIENVVYNWGAS	inactive

Substance	amyloid nucleation score
FSLFS	inactive
ATFIFSDRQSHIHLYSNTQY	inactive
IQASWFNWKWLL	inactive
VPVVGISYSYLILWFYLYVG	inactive
GCLIAGYKKRDANKFCGVAL	inactive
RVMSWMILNKYVKIPYCRHR	inactive
YLDFDRMFVQCEFCLTDLDL	0.59 ± 0.13
RCRLSKANFRHWNKEVKWTF	inactive
MIFRAQDSYGPLYT	inactive
SQASLFFSGWWILFTYMLGW	inactive
FSASVVSTGINTSY	inactive
FMFVVWGYINGFGYLTGVN	inactive
VDDIPYRFKTIKTTG	inactive
RLVDLAWRCYKIDKCLTCSS	-0.589 ± 0.93
RNCYCWASVDI	inactive
GKGSNASIGVITVDTVYIVA	1.42 ± 0.09
YYPQRAGYRVPVFLWIGNWR	inactive
FTFRLVKNTTLNGIYFCIKR	0.787 ± 0.18
FNSRNSVVTDLRYWSIRGLV	inactive
YKNIFSWSPNSWTYKCSVNN	inactive
